To fix the notation:
B1: glmS ribozyme (parent)
chain: AUAAAAGCGCCAGAACUACAGAAAUGUAGUUGACGAGGAGGAGGUUUAUCGAAUUUUCGGCGGAUGCCUCCAAA

± gives the standard error. This sample holds only a part of the variants without activity.

Holding throughout (conditions): with glucosamine-6-phosphate
In data set [1] the parent is B1. The data set can be described thus: self-cleavage kobs at 40 uM GlcN6P; higher = faster cleavage; RNA array. The procedure, abridged: (§1)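 Weighted Michaelis–Menten fits across concentrations supplied kcat and KM, based on kobs from one- or two-exponential decay fits to normalised per-tile medians. The data came from barcoded ribozyme variants transcribed in situ by E. coli RNA polymerase on sequenced MiSeq chips and tracked at 37 °C by a hybridised Cy3 probe. Glucosamine-6-phosphate (40 μM to 10 mM) in HEPES/KCl/Mg(OAc)2 buffer was flowed in.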

The variants in data set [2] derive from B1. The data set can be described thus: self-cleavage kobs at 160 uM GlcN6P; higher = faster cleavage; RNA array. The procedure, abridged: as §1
In data set [3] the parent is B1. Put plainly: self-cleavage kobs at 640 uM GlcN6P; higher = faster cleavage; RNA array. The procedure, abridged: as §1
Variants of B1 are the subject of data set [4]. The data set can be described thus: self-cleavage kobs at 2500 uM GlcN6P; higher = faster cleavage; RNA array. A digest of the protocol: as §1
The variants in data set [5] derive from B1. Put plainly: self-cleavage kobs at 10000 uM GlcN6P; higher = faster cleavage; RNA array. The procedure, abridged: as §1

Take C16A G35C: the “self-cleavage kobs at 40 uM GlcN6P” value in the data set with glucosamine-6-phosphate [1] is less than 1e-05 s⁻¹. Besides, the “self-cleavage kobs at 160 uM GlcN6P” value in the data set with glucosamine-6-phosphate [2] was less than 1e-05 s⁻¹. In addition, the “self-cleavage kobs at 640 uM GlcN6P” value with glucosamine-6-phosphate [3] is less than 1e-05 s⁻¹. Moreover, the “self-cleavage kobs at 2500 uM GlcN6P” value with glucosamine-6-phosphate [4] was less than 1e-05 s⁻¹. Also, the “self-cleavage kobs at 10000 uM GlcN6P” value with glucosamine-6-phosphate [5] was less than 1e-05 s⁻¹.
Take C10U U57A: in the data set with glucosamine-6-phosphate [1], the “self-cleavage kobs at 40 uM GlcN6P” value was less than 1e-05 s⁻¹. For the same variant, in the data set with glucosamine-6-phosphate [5], the “self-cleavage kobs at 10000 uM GlcN6P” value is less than 1e-05 s⁻¹.
For the variant G37C A52U A53U, the “self-cleavage kobs at 40 uM GlcN6P” value with glucosamine-6-phosphate [1] was less than 1e-05 s⁻¹.
Take G37U G41C: the “self-cleavage kobs at 40 uM GlcN6P” value with glucosamine-6-phosphate [1] was less than 1e-05 s⁻¹. Also, in the data set with glucosamine-6-phosphate [2], the “self-cleavage kobs at 160 uM GlcN6P” value was less than 1e-05 s⁻¹. Also, the “self-cleavage kobs at 640 uM GlcN6P” value with glucosamine-6-phosphate [3] was less than 1e-05 s⁻¹. In addition, the “self-cleavage kobs at 2500 uM GlcN6P” value with glucosamine-6-phosphate [4] was less than 1e-05 s⁻¹.
As to C68G, the “self-cleavage kobs at 40 uM GlcN6P” value with glucosamine-6-phosphate [1] was determined as 1.18e-05 ± 2.8e-06 s⁻¹. In the data set with glucosamine-6-phosphate [3], the “self-cleavage kobs at 640 uM GlcN6P” value amounted to 0.000523 ± 0.00014 s⁻¹. For the same variant, the “self-cleavage kobs at 2500 uM GlcN6P” value with glucosamine-6-phosphate [4] amounted to 9.11e-05 ± 1.8e-06 s⁻¹. Further, the “self-cleavage kobs at 10000 uM GlcN6P” value in the data set with glucosamine-6-phosphate [5] was found to be 0.000473 ± 9.9e-05 s⁻¹.
Regarding A48U G59A G66U, the “self-cleavage kobs at 40 uM GlcN6P” value with glucosamine-6-phosphate [1] is less than 1e-05 s⁻¹. Also, the “self-cleavage kobs at 160 uM GlcN6P” value with glucosamine-6-phosphate [2] was less than 1e-05 s⁻¹. The “self-cleavage kobs at 640 uM GlcN6P” value in the data set with glucosamine-6-phosphate [3] is less than 1e-05 s⁻¹. Further, the “self-cleavage kobs at 10000 uM GlcN6P” value with glucosamine-6-phosphate [5] is less than 1e-05 s⁻¹.
Consider G13C G51A, for which the “self-cleavage kobs at 40 uM GlcN6P” value with glucosamine-6-phosphate [1] is less than 1e-05 s⁻¹. In addition, the “self-cleavage kobs at 2500 uM GlcN6P” value with glucosamine-6-phosphate [4] is less than 1e-05 s⁻¹. In addition, the “self-cleavage kobs at 10000 uM GlcN6P” value with glucosamine-6-phosphate [5] is less than 1e-05 s⁻¹.
Turning to G32C A39G, the “self-cleavage kobs at 40 uM GlcN6P” value with glucosamine-6-phosphate [1] was less than 1e-05 s⁻¹. In addition, the “self-cleavage kobs at 160 uM GlcN6P” value with glucosamine-6-phosphate [2] was less than 1e-05 s⁻¹. Besides, the “self-cleavage kobs at 2500 uM GlcN6P” value with glucosamine-6-phosphate [4] is 3.52e-05 ± 1.2e-05 s⁻¹. Moreover, in the data set with glucosamine-6-phosphate [5], the “self-cleavage kobs at 10000 uM GlcN6P” value came to 0.000101 ± 1.4e-05 s⁻¹.
Consider G38C G44U, for which the “self-cleavage kobs at 40 uM GlcN6P” value in the data set with glucosamine-6-phosphate [1] was less than 1e-05 s⁻¹. The “self-cleavage kobs at 160 uM GlcN6P” value with glucosamine-6-phosphate [2] is less than 1e-05 s⁻¹. Further, the “self-cleavage kobs at 640 uM GlcN6P” value with glucosamine-6-phosphate [3] was less than 1e-05 s⁻¹. Moreover, the “self-cleavage kobs at 2500 uM GlcN6P” value with glucosamine-6-phosphate [4] was less than 1e-05 s⁻¹. Besides, in the data set with glucosamine-6-phosphate [5], the “self-cleavage kobs at 10000 uM GlcN6P” value is less than 1e-05 s⁻¹.
In the case of A36C G41C U69A, in the data set with glucosamine-6-phosphate [1], the “self-cleavage kobs at 40 uM GlcN6P” value is less than 1e-05 s⁻¹.
Consider A12G A33G G37U, for which the “self-cleavage kobs at 40 uM GlcN6P” value with glucosamine-6-phosphate [1] was less than 1e-05 s⁻¹. Besides, the “self-cleavage kobs at 10000 uM GlcN6P” value with glucosamine-6-phosphate [5] is less than 1e-05 s⁻¹.
For G40C C50G, the “self-cleavage kobs at 40 uM GlcN6P” value with glucosamine-6-phosphate [1] is less than 1e-05 s⁻¹. In addition, the “self-cleavage kobs at 160 uM GlcN6P” value with glucosamine-6-phosphate [2] is less than 1e-05 s⁻¹. In addition, the “self-cleavage kobs at 2500 uM GlcN6P” value with glucosamine-6-phosphate [4] was less than 1e-05 s⁻¹. Besides, in the data set with glucosamine-6-phosphate [5], the “self-cleavage kobs at 10000 uM GlcN6P” value is less than 1e-05 s⁻¹.
Consider A12U A53G, for which the “self-cleavage kobs at 40 uM GlcN6P” value in the data set with glucosamine-6-phosphate [1] was 0.00255 ± 0.00025 s⁻¹. In addition, the “self-cleavage kobs at 160 uM GlcN6P” value with glucosamine-6-phosphate [2] was 0.00496 ± 0.00086 s⁻¹. Besides, the “self-cleavage kobs at 640 uM GlcN6P” value with glucosamine-6-phosphate [3] was found to be 0.0163 ± 0.0025 s⁻¹. In the data set with glucosamine-6-phosphate [5], the “self-cleavage kobs at 10000 uM GlcN6P” value was 0.125 ± 0.023 s⁻¹.
For the variant G44C U57C, the “self-cleavage kobs at 40 uM GlcN6P” value with glucosamine-6-phosphate [1] was less than 1e-05 s⁻¹. Further, the “self-cleavage kobs at 160 uM GlcN6P” value in the data set with glucosamine-6-phosphate [2] is less than 1e-05 s⁻¹. Besides, in the data set with glucosamine-6-phosphate [3], the “self-cleavage kobs at 640 uM GlcN6P” value was less than 1e-05 s⁻¹. Further, the “self-cleavage kobs at 2500 uM GlcN6P” value in the data set with glucosamine-6-phosphate [4] was less than 1e-05 s⁻¹. The “self-cleavage kobs at 10000 uM GlcN6P” value with glucosamine-6-phosphate [5] was less than 1e-05 s⁻¹.
Turning to G41U C50A, the “self-cleavage kobs at 40 uM GlcN6P” value in the data set with glucosamine-6-phosphate [1] was less than 1e-05 s⁻¹. Besides, the “self-cleavage kobs at 160 uM GlcN6P” value in the data set with glucosamine-6-phosphate [2] was less than 1e-05 s⁻¹. In addition, the “self-cleavage kobs at 640 uM GlcN6P” value with glucosamine-6-phosphate [3] was less than 1e-05 s⁻¹. In the data set with glucosamine-6-phosphate [4], the “self-cleavage kobs at 2500 uM GlcN6P” value is less than 1e-05 s⁻¹. In the data set with glucosamine-6-phosphate [5], the “self-cleavage kobs at 10000 uM GlcN6P” value is less than 1e-05 s⁻¹.
For the variant C34G U45G C70A, the “self-cleavage kobs at 40 uM GlcN6P” value in the data set with glucosamine-6-phosphate [1] is less than 1e-05 s⁻¹. Besides, the “self-cleavage kobs at 160 uM GlcN6P” value in the data set with glucosamine-6-phosphate [2] is less than 1e-05 s⁻¹. The “self-cleavage kobs at 2500 uM GlcN6P” value in the data set with glucosamine-6-phosphate [4] is less than 1e-05 s⁻¹. Also, the “self-cleavage kobs at 10000 uM GlcN6P” value with glucosamine-6-phosphate [5] is less than 1e-05 s⁻¹.
For C8A G40A, the “self-cleavage kobs at 40 uM GlcN6P” value in the data set with glucosamine-6-phosphate [1] is less than 1e-05 s⁻¹. For the same variant, in the data set with glucosamine-6-phosphate [3], the “self-cleavage kobs at 640 uM GlcN6P” value was less than 1e-05 s⁻¹. Also, the “self-cleavage kobs at 2500 uM GlcN6P” value with glucosamine-6-phosphate [4] is less than 1e-05 s⁻¹.
Take A36U C58G C70A: the “self-cleavage kobs at 40 uM GlcN6P” value in the data set with glucosamine-6-phosphate [1] was 8.19e-05 ± 2.5e-05 s⁻¹. For the same variant, in the data set with glucosamine-6-phosphate [2], the “self-cleavage kobs at 160 uM GlcN6P” value is 0.000111 ± 3.1e-05 s⁻¹. In addition, the “self-cleavage kobs at 2500 uM GlcN6P” value with glucosamine-6-phosphate [4] was 4.59e-05 ± 2.3e-05 s⁻¹. Further, the “self-cleavage kobs at 10000 uM GlcN6P” value with glucosamine-6-phosphate [5] was 5.18e-05 ± 1.5e-05 s⁻¹.

Source of the values: the supplement of paper PMC7125110.
